# Measurements: patent publication US20230340160A1 (published 2023)
# B1: “2+1 IgG Crossfab (CL/CH1)”; CL/CH1 exchange (M4-3 ML2/V9) (bispecific antibody)
# heavy 1: not shown
# heavy 2: QVQLQESGPGLVKPSQTLSLTCTVSGGSITSGYYWNWIRQHPGKGLEWIGYITYDGSNNYNPSLKSRVTISRDTSKNQFSLKLSSVTAADTAVYYCADFDYWGQGTLVTVSSASTKGPSVFPLAPSSKSTSGGTAALGCLVKDYFPEPVTVSWNSGALTSGVHTFPAVLQSSGLYSLSSVVTVPSSSLGTQTYICNVNHKPSNTKVDKKVEPKSCDKTHTCPPCPAPEAAGGPSVFLFPPKPKDTLMISRTPEVTCVVVDVSHEDPEVKFNWYVDGVEVHNAKTKPREEQYNSTYRVVSVLTVLHQDWLNGKEYKCKVSNKALGAPIEKTISKAKGQPREPQVCTLPPSRDELTKNQVSLSCAVKGFYPSDIAVEWESNGQPENNYKTTPPVLDSDGSFFLVSKLTVDKSRWQQGNVFSCSVMHEALHNHYTQKSLSLSPGK
# light 1: not shown
# light 2: DIQMTQSPSSLSASVGDRVTITCRASQDIRNYLNWYQQKPGKAPKLLIYYTSRLESGVPSRFSGSGSGTDYTLTISSLQPEDFATYYCQQGNTLPWTFGQGTKVEIKSSASTKGPSVFPLAPSSKSTSGGTAALGCLVKDYFPEPVTVSWNSGALTSGVHTFPAVLQSSGLYSLSSVVTVPSSSLGTQTYICNVNHKPSNTKVDKKVEPKSC
# B2: CD3/MCSP “1+1 CrossMab”; CL/CH1 exchange (LC007/V9) (bispecific antibody, human IgG1, kappa, L234A L235A)
# heavy 1: not shown
# heavy 2: EVQLQESGPGLVKPSQSLSLTCSVTGYSITSGYYWNWIRQFPGNKLEWMGYITYDGSNNYNPSLKNRISITRDTSKNQFFLKLNSVTTEDTATYYCADFDYWGQGTTLTVSSASTKGPSVFPLAPSSKSTSGGTAALGCLVKDYFPEPVTVSWNSGALTSGVHTFPAVLQSSGLYSLSSVVTVPSSSLGTQTYICNVNHKPSNTKVDKKVEPKSCDKTHTCPPCPAPEAAGGPSVFLFPPKPKDTLMISRTPEVTCVVVDVSHEDPEVKFNWYVDGVEVHNAKTKPREEQYNSTYRVVSVLTVLHQDWLNGKEYKCKVSNKALGAPIEKTISKAKGQPREPQVCTLPPSRDELTKNQVSLSCAVKGFYPSDIAVEWESNGQPENNYKTTPPVLDSDGSFFLVSKLTVDKSRWQQGNVFSCSVMHEALHNHYTQKSLSLSPGK
# light 1: DIVLTQSPSSLSASLGDRVTISCSASQGIRNYLNWYQQRPDGTVKLLIYYTSSLHSGVPSRFSGSGSGTDYSLTISNLEPEDIATYYCQQYSKLPWTFGGGTKLEIKRTVAAPSVFIFPPSDEQLKSGTASVVCLLNNFYPREAKVQWKVDNALQSGNSQESVTEQDSKDSTYSLSSTLTLSKADYEKHKVYACEVTHQGLSSPVTKSFNRGEC
# light 2: B1 light 2
# B3: “2+1 IgG Crossfab (VL/VH)”; VL/VH exchange (M4-3 ML2/V9) (bispecific antibody)
# heavy 1: not shown
# heavy 2: B1 heavy 2
# light 1: not shown
# light 2: EVQLVESGGGLVQPGGSLRLSCAASGYSFTGYTMNWVRQAPGKGLEWVALINPYKGVSTYNQKFKDRFTISVDKSKNTAYLQMNSLRAEDTAVYYCARSGYYGDSDWYFDVWGQGTLVTVSSASVAAPSVFIFPPSDEQLKSGTASVVCLLNNFYPREAKVQWKVDNALQSGNSQESVTEQDSKDSTYSLSSTLTLSKADYEKHKVYACEVTHQGLSSPVTKSFNRGEC
# B4: “1+1 IgG Crossfab light chain (LC) fusion” (CH1A1A/V9) (bispecific antibody)
# heavy: not shown
# chain: DKTHTCPPCPAPEAAGGPSVFLFPPKPKDTLMISRTPEVTCVVVDVSHEDPEVKFNWYVDGVEVHNAKTKPREEQYNSTYRVVSVLTVLHQDWLNGKEYKCKVSNKALGAPIEKTISKAKGQPREPQVCTLPPSRDELTKNQVSLSCAVKGFYPSDIAVEWESNGQPENNYKTTPPVLDSDGSFFLVSKLTVDKSRWQQGNVFSCSVMHEALHNHYTQKSLSLSPGK
# light 1: DIQMTQSPSSLSASVGDRVTITCKASAAVGTYVAWYQQKPGKAPKLLIYSASYRKRGVPSRFSGSGSGTDFTLTISSLQPEDFATYYCHQYYTYPLFTFGQGTKLEIKRTVAAPSVFIFPPSDEQLKSGTASVVCLLNNFYPREAKVQWKVDNALQSGNSQESVTEQDSKDSTYSLSSTLTLSKADYEKHKVYACEVTHQGLSSPVTKSFNRGECGGGGSGGGGSGGGGSGGGGSEVQLVESGGGLVQPGGSLRLSCAASGYSFTGYTMNWVRQAPGKGLEWVALINPYKGVSTYNQKFKDRFTISVDKSKNTAYLQMNSLRAEDTAVYYCARSGYYGDSDWYFDVWGQGTLVTVSSASVAAPSVFIFPPSDEQLKSGTASVVCLLNNFYPREAKVQWKVDNALQSGNSQESVTEQDSKDSTYSLSSTLTLSKADYEKHKVYACEVTHQGLSSPVTKSFNRGEC
# light 2: B1 light 2
# notes: also called 1+1 IgG Crossfab LC fusion
# B5: CD3/MCSP “1+1 IgG Crossfab”; VL/VH exchange (LC007/V9) (bispecific antibody)
# heavy: DIQMTQSPSSLSASVGDRVTITCRASQDIRNYLNWYQQKPGKAPKLLIYYTSRLESGVPSRFSGSGSGTDYTLTISSLQPEDFATYYCQQGNTLPWTFGQGTKVEIKSSASTKGPSVFPLAPSSKSTSGGTAALGCLVKDYFPEPVTVSWNSGALTSGVHTFPAVLQSSGLYSLSSVVTVPSSSLGTQTYICNVNHKPSNTKVDKKVEPKSCGGGGSGGGGSEVQLQESGPGLVKPSQSLSLTCSVTGYSITSGYYWNWIRQFPGNKLEWMGYITYDGSNNYNPSLKNRISITRDTSKNQFFLKLNSVTTEDTATYYCADFDYWGQGTTLTVSSASTKGPSVFPLAPSSKSTSGGTAALGCLVKDYFPEPVTVSWNSGALTSGVHTFPAVLQSSGLYSLSSVVTVPSSSLGTQTYICNVNHKPSNTKVDKKVEPKSCDKTHTCPPCPAPEAAGGPSVFLFPPKPKDTLMISRTPEVTCVVVDVSHEDPEVKFNWYVDGVEVHNAKTKPREEQYNSTYRVVSVLTVLHQDWLNGKEYKCKVSNKALGAPIEKTISKAKGQPREPQVCTLPPSRDELTKNQVSLSCAVKGFYPSDIAVEWESNGQPENNYKTTPPVLDSDGSFFLVSKLTVDKSRWQQGNVFSCSVMHEALHNHYTQKSLSLSPGK
# chain: not shown
# light 1: B2 light 1
# light 2: B3 light 2
# Legend:
# [1] = target: human MCSP expressed on tumor cells (human, UniProt Q6UVK1 30-2322); test: cell-based or functional assay
# human MCSP expressed on tumor cells, sequence (Q6UVK1 30-2322): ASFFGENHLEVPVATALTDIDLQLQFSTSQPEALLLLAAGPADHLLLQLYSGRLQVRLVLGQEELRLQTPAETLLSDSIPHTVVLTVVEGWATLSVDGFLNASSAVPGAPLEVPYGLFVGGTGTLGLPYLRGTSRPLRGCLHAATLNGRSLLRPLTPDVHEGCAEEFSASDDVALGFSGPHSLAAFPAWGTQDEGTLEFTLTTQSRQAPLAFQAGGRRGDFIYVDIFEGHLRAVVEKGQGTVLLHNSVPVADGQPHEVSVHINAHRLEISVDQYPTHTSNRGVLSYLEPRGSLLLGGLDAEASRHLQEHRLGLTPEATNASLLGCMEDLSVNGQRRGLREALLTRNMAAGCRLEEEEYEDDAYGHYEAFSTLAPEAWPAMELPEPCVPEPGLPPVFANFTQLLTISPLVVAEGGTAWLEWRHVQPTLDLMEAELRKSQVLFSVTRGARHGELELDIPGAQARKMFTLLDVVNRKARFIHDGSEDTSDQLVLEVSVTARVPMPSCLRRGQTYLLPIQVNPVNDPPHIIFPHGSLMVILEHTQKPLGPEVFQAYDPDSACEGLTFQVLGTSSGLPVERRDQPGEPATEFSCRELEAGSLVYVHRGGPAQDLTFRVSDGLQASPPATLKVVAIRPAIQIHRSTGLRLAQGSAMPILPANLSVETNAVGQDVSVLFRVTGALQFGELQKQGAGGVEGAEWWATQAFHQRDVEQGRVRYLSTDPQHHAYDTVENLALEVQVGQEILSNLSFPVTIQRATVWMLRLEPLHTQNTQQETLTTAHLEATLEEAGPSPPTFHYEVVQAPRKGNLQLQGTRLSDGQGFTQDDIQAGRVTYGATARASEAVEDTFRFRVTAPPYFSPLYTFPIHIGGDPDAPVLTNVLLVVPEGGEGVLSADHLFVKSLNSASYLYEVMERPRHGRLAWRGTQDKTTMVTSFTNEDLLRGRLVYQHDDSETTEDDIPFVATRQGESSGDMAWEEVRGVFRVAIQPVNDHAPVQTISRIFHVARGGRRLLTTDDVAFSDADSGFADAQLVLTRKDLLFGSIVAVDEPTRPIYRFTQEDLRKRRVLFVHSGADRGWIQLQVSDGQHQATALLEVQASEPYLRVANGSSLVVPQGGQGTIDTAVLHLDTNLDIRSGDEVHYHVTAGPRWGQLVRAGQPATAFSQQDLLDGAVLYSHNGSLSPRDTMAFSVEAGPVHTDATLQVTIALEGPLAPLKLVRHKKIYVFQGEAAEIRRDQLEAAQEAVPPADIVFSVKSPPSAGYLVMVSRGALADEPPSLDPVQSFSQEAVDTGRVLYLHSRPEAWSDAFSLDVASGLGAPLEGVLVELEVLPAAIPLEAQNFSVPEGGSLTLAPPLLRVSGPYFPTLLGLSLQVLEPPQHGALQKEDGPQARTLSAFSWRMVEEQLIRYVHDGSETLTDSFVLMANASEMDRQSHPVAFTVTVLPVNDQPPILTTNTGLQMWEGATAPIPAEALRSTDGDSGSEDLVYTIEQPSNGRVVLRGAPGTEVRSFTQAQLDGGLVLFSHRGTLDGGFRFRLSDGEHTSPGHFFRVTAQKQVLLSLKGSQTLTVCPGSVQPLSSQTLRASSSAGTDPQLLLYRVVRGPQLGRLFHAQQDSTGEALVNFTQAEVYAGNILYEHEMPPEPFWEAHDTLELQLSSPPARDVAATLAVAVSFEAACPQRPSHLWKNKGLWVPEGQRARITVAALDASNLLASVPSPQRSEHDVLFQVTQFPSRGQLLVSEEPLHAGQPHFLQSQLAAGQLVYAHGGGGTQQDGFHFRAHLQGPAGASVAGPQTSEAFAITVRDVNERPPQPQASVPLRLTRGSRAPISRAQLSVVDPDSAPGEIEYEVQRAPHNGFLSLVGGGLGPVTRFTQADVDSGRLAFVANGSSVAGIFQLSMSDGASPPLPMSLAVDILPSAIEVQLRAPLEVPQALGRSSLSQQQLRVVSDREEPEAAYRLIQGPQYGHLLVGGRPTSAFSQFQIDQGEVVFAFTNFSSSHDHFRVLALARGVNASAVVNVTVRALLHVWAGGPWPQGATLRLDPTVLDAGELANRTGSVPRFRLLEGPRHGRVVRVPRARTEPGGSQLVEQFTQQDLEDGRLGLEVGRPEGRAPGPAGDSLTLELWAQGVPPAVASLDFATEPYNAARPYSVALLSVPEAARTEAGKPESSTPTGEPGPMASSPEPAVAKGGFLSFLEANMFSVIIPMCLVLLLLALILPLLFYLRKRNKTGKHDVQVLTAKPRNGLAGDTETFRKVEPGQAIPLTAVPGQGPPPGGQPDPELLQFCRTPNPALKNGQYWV
# [2] = target: T1, human CD3 expressed on Jurkat cells (human, UniProt P07766 23-207); test: flow cytometry on Jurkat cells
# T1 construct: CD3 complex on Jurkat cells (ATCC TIB-152); also called huCD3
# T1 sequence (P07766 23-207 limits assumed): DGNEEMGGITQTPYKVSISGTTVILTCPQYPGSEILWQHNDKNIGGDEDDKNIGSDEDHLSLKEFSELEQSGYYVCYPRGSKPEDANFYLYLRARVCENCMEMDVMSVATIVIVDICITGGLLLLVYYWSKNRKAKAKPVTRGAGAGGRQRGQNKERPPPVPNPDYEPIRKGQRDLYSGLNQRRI
# Experimental: Binding of the different bispecific constructs to CD3 on Jurkat cells (ATCC #TIB-152), and the respective tumor antigen on target cells, was determined by FACS. Briefly, cells were harvested, counted and checked for viability. 0.15 - 0.2 million cells per well (in PBS containing 0.1% BSA; 90 µl) were plated in a round-bottom 96-well plate and incubated with the indicated concentration of the bispecific constructs and corresponding IgG controls (10 µl) for 30 min at 4° C. For a better comparison, all constructs and IgG controls were normalized to same molarity. After the incubation, cells were centrifuged (5 min, 350 × g), washed with 150 µl PBS containing 0.1% BSA, resuspended and incubated for further 30 min at 4° C. with 12 µl/well of a FITC-or PE-conjugated secondary antibody. Bound constructs were detected using a FACSCantoII (Software FACS Diva). The “(scFv)₂” molecule was detected using a FITC-conjugated anti-His antibody (Lucerna, #RHIS-45F-Z). For all other molecules, a FITC- or PE-conjugated AffiniPure F(ab′)2 Fragment goat anti-human IgG Fcγ Fragment Specific (Jackson Immuno Research Lab # 109-096-098 / working solution 1:20, or #109-116-170 / working solution 1:80, respectively) was used. Cells were washed by addition of 120 µl/well PBS containing 0.1% BSA and centrifugation at 350 × g for 5 min. A second washing step was performed with 150 µl/well PBS containing 0.1% BSA. Unless otherwise indicated, cells were fixed with 100 µl/well fixation buffer (BD #554655) for 15 min at 4° C. in the dark, centrifuged for 6 min at 400 × g and kept in 200 µl/well PBS containing 0.1% BSA until the samples were measured with FACS CantoII. EC50 values were calculated using the GraphPad Prism software.
# As a control, the equivalent maximum concentration of the corresponding IgGs and the background staining due to the labeled 2ndary antibody (goat anti-human FITC-conjugated AffiniPure F(ab′)2 Fragment, Fcγ Fragment-specific, Jackson Immuno Research Lab # 109-096-098) were assessed as well.
# [3] = target: T2, human CEA expressed on tumor cells (human, UniProt P06731 35-702); test: cell-based or functional assay
# T2 sequence (looked up): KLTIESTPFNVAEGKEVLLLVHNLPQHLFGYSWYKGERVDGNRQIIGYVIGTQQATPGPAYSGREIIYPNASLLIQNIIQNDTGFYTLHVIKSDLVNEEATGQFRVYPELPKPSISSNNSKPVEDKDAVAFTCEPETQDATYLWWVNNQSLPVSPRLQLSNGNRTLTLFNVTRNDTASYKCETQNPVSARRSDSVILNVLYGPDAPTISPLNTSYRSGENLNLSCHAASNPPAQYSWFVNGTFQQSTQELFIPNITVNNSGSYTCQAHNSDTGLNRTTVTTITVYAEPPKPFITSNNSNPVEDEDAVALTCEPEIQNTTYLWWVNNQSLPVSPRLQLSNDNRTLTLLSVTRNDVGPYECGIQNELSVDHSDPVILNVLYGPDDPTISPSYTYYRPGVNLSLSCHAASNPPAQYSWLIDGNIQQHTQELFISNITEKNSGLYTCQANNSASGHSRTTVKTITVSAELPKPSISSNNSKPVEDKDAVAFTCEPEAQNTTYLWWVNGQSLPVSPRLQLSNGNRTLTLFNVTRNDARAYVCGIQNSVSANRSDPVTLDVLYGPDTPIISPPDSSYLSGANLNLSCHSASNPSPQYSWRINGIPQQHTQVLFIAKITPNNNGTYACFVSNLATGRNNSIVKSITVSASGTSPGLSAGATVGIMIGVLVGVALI
Binder,"EC50 of killing (LDH release) of MV-3 cells, human PBMCs, E:T 10:1, 27 h [1] [nM]","EC50 of killing (LDH release) of WM266-4 cells, human PBMCs, E:T 10:1, 26 h [1] [nM]","EC50 of killing (LDH release) of MV-3 cells, human PBMCs, E:T 10:1, 21 h [1] [nM]","EC50 of killing (LDH release) of WM266-4 cells, human PBMCs, E:T 10:1, 21 h [1] [nM]",other results
B1,~0.0117,0.0129,–,–,–
B2,–,–,0.0884,0.0539,–
B3,~0.0822,0.0168,–,–,–
B4,–,–,–,–,"binding result [2]: binds; EC50 of killing (LDH release) of LS-174T cells, human PBMCs, E:T 10:1, 28 h [3]: 1.56 nM; EC50 of killing (LDH release) of MC38-huCEA cells, human PBMCs, E:T 10:1, 24 h [3]: ~3.2 nM; EC50 of killing (LDH release) of MKN-45 cells, human PBMCs, E:T 10:1, 28 h [3]: 0.213 nM"
B5,–,–,0.0409,0.0284,–
